{
  "source": "paper PMC11406985",
  "molecular_target": "medusavirus major capsid protein (medusavirus)",
  "experiment": "cryo-EM structure; purified medusavirus particles (DNA-empty and DNA-full) assembled in infected amoebae, in PBS; single particle analysis with block-based reconstruction of fivefold, threefold and twofold blocks, 7.3-9.9 Å; AlphaFold2 model of the MCP fitted into the map",
  "data": [
    {"substance": "medusavirus major capsid protein (natural protein)", "values": [
      {"measurement": "stoichiometry N", "result": 3}
    ]}
  ]
}
